These results are taken from publication PMC7440919, “Cryo-EM structure of the lysosomal chloride-proton exchanger CLC-7 in complex with OSTM1” (eLife, 2020).

Usually stoichiometry N stands for the number of molecules, sites or subunits per partner or assembly.

B1: human CLC-7 (natural protein, UniProt P51798 1-805, looked up)
chain: MANVSKKVSWSGRDRDDEEAAPLLRRTARPGGGTPLLNGAGPGAARQSPRSALFRVGHMSSVELDDELLDPDMDPPHPFPKEIPHNEKLLSLKYESLDYDNSENQLFLEEERRINHTAFRTVEIKRWVICALIGILTGLVACFIDIVVENLAGLKYRVIKGNIDKFTEKGGLSFSLLLWATLNAAFVLVGSVIVAFIEPVAAGSGIPQIKCFLNGVKIPHVVRLKTLVIKVSGVILSVVGGLAVGKEGPMIHSGSVIAAGISQGRSTSLKRDFKIFEYFRRDTEKRDFVSAGAAAGVSAAFGAPVGGVLFSLEEGASFWNQFLTWRIFFASMISTFTLNFVLSIYHGNMWDLSSPGLINFGRFDSEKMAYTIHEIPVFIAMGVVGGVLGAVFNALNYWLTMFRIRYIHRPCLQVIEAVLVAAVTATVAFVLIYSSRDCQPLQGGSMSYPLQLFCADGEYNSMAAAFFNTPEKSVVSLFHDPPGSYNPLTLGLFTLVYFFLACWTYGLTVSAGVFIPSLLIGAAWGRLFGISLSYLTGAAIWADPGKYALMGAAAQLGGIVRMTLSLTVIMMEATSNVTYGFPIMLVLMTAKIVGDVFIEGLYDMHIQLQSVPFLHWEAPVTSHSLTAREVMSTPVTCLRRREKVGVIVDVLSDTASNHNGFPVVEHADDTQPARLQGLILRSQLIVLLKHKVFVERSNLGLVQRRLRLKDFRDAYPRFPPIQSIHVSQDERECTMDLSEFMNPSPYTVPQEASLPRVFKLFRALGLRHLVVVDNRNQVVGLVTRKDLARYRLGKRGLEELSLAQT
notes: CLC-7 (CLCN7) chloride-proton exchanger, human; synthesized gene (SynBio); called full-length in the results for the human CLC-7 expressed alone; the methods describe only the mCerulean construct used for the complex with OSTM1; also called hsCLC-7; hsCLCN7; not shown: mCerulean, C-terminal, cleaved

Data set [1] deals with chicken CLC-7 (Gallus gallus (chicken)). Description: cryo-EM structure; purified ggCLC-7 at 2 mg/ml in LMNG, 50 mM Tris-HCl pH 8, 150 mM KCl, 2 mM DTT; C2 symmetry imposed.
Data set [2] concerns the molecule itself. Description: cryo-EM structure; purified co-expressed hsCLC-7/OSTM1 complex at 2 mg/ml, supplemented with 1 mM ATP and 0.1% LMNG; 50 mM Tris-HCl pH 8, 150 mM KCl, 2 mM DTT; C2 symmetry imposed, local refinements.
In the data set “human CLC-7” the target is B1. The data set is described as above. Conditions: both partners purified.

On to chicken CLC-7 (natural protein), for which, in data set [1], the stoichiometry N came out at 2.

On to B1, for which the “stoichiometry N” value in data set [2] stood at 2.

B2: human osteopetrosis-associated transmembrane protein 1 (OSTM1) (natural protein)
chain: ALPFGSSPHRVFHDLLSEQQLLEVEDLSLSLLQGGGLGPLSLPPDLPDLDPECRELLLDFANSSAELTGCLVRSARPVRLCQTCYPLFQQVVSKMDNISRAAGNTSESQSCARSLLMADRMQIVVILSEFFNTTWQEANCANCLTNNSEELSNSTVYFLNLFNHTLTCFEHNLQGNAHSLLQTKNYSEVCKNCREAYKTLSSLYSEMQKMNELENKAEPGTHLCIDVEDAMNITRKLWSRTFNCSVPCSDTVPVIAVSVFILFLPVVFYLSSFLHSEQKKRKLILPKRLKSSTSFANIQENSN
modifications: N-linked carbohydrate at asparagines 93, 128, 163, 184, 194, 263 and 274; five disulfide bonds in the luminal domain
notes: OSTM1, human, single-pass transmembrane protein; synthesized gene (SynBio); C-terminal cytoplasmic domain disordered in the structure; Printed residue numbers appear to count on the precursor; also called hsOSTM1; beta-subunit of CLC-7; not shown: mVenus, C-terminal, cleaved
In the case of B2, the “stoichiometry N” value in data set [2] was 2. For the same molecule, the binding result in the data set with human CLC-7 is given as “binds”.
